Paper PMC4608377, “Substrate specificity and transport mechanism of amino-acid transceptor Slimfast from Aedes aegypti” (Nature Communications, 2015)

Assays:
Conditions in all cases: high-affinity site of two-site fit (apparent dissociation constant); 98 mM Na+ buffer; holding voltage -50 mV
[1] = substrate: N[C@@H](Cc1ccccc1)C(=O)O; experiment: two-electrode voltage clamp, substrate-induced currents in Xenopus oocytes, two-site saturation fit; type: cell-based, Aedes aegypti
[2] = substrate: N=C(N)NCCC[C@H](N)C(=O)O; experiment: as above; type: cell-based, Aedes aegypti
[3] = substrate: NCCC[C@H](N)C(=O)O; experiment: cells, lysate or membranes

B1: AaSlif (=AaCAT3; Slimfast) (Aedes aegypti) (protein)
chain: MRQGGRIDRFWIALTRKKRNEDDGSDSQLARVLSLLDLTGLGVGSTLGLGVYVLAGSVAYEQAGPAVVISFLVAAVASAIAALCYAEFAARVPKAGSAYIYSYVSIGEFAAFTIGWNLILEYVIGTSSVARGMSGYIDELAGKKISTALKETMGMNVDFLSDYPDFFSFVVVLILAALLAYGVKESTLMNNIFTGVNLCVIAIVLVAGGMNCDPANWMIKPEDIPKGIDAGVGGFAPYGFAGIMAGAAKCFYGFVGFDCIATTGEEAKNPSRNIPLAIVISLIIIFLAYFGISTVLTMALPYYLQNPDAPFPHLFEQLEWHAIKWIVSIGAIFALCTSLLGAMFPLPRVLYAMSTDGIIYKKLRTVHPKTQTPVLATILAGLLAATMAMLFNLQQLIDMMSIGTLLAYTIVAVSVLVLRYEDQTLMQSATVTIPNVFRQVFNVDKLKSPTTLSSSIVKFGICIFALLVCAVCTILVLATDELSAEYPGTLAAISVLGACMVFLIIVTALQPTENTKLTFKVPLVPLLPMLSVFFNLYLMFQLDAGTWVRFAVWIVIGYLIYFTYGIKHSVEGAIAKQAAVNGNGITIVKNGIDNNAFDGSNDKFVSTVPAENPRKSSKNSYSLNNE
notes: full length, 626 residues (1,881-nt ORF); Xenopus codon-optimised (synonymous) in pXOOM, without tag or with C-terminal eGFP (used interchangeably); cRNA expressed in Xenopus laevis oocytes
[1]
  K0.5: 15.6 ± 8.5 µM
[2]
  K0.5: 5.2 ± 1.4 µM
[3]
  K0.5: 13.8 ± 6.2 µM
